For the test, the target named is Human ACE2-hIgG1Fc (human) (UniProt Q9BYF1). The test can be described thus: SPR.

pKd: −log10 of the molar value.

Chain of Human ACE2-hIgG1Fc (human) (Q9BYF1 18-740): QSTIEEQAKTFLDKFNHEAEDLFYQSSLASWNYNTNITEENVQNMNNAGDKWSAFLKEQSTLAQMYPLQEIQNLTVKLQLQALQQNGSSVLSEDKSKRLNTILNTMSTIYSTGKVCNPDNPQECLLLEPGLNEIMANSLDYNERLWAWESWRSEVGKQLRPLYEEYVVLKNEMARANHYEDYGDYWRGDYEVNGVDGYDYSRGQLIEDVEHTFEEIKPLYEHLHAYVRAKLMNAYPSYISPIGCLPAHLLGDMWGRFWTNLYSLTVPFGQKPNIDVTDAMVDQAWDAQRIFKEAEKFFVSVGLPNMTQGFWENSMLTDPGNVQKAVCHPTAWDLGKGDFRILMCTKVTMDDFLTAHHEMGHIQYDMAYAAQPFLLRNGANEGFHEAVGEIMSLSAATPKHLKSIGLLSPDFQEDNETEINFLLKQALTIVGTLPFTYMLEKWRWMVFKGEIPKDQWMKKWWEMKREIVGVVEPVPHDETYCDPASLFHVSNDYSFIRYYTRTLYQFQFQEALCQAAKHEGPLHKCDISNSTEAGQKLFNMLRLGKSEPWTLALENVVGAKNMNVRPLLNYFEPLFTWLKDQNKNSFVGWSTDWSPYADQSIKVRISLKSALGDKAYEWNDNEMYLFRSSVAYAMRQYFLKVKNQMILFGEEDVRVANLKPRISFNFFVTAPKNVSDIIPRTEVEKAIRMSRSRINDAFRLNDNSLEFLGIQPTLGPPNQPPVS

In turn, Wuhan RBD had a pKd of 8.14 and a koff of 0.0051 s⁻¹.

Usually pKd stands for the negative decadic logarithm of the Kd, by convention in mol/L. As a reminder, the koff is the first-order rate constant of dissociation.

For the origin of these results see paper PMC9120130.
